Assay results from patent US20040170601A1, “Method of improving the growth performance of an animal” (priority 2001, published 2004).
Entries after “also recorded” stand apart in the source; their conditions may differ.

Assays:
[1] = Example 5: repeat growth performance trial of IL-5 with normal, reduced and no antibiotics; assay type: in vivo, pigs
Experimental: This trial repeats the evaluation of IL-5 to improve growth performance and/or immunity of pigs by comparing the growth rate and health of male and female weaner pigs (from 28 days old: Week 0 of the trial) through the weaner (Weeks 0-6), grower (Weeks 6-13) and finisher (Weeks 13-19) stages to slaughter (Week 19), which were administered with recombinant porcine cytokine IL-5, and saline was used as a control, with and without standard weaner medicated water and feed, and reduced antibiotics, in a commercial piggery environment.
This trial (weaner/grower/finisher trial) was designed to investigate the effect of providing IL-5 and the controls (saline) from weaning to slaughter with normal, reduced and no antibiotics in water supply. The experiment evaluates the capacity of IL-5 for replacing antibiotics under commercial pig rearing conditions and to determine the effect of continuous administration of the cytokines throughout the life of the pig on performance and carcass characteristics.
The experiment was undertaken in a commercial environment where the pigs were weaned at 28 days of age. All injections were 1 ml. There were 16 pigs per treatment, 8 males and 8 females per treatment. The overall weight of pigs in each treatment was similar at the start of the experiment.
−means no antibiotic supplements in water or feed throughout trial.
0.5 means single antibiotics used throughout trial at normal dose
+ means normal antibiotic regime used throughout trial IL-5+ means IL-5 administered during Weaner/Grower/Finisher periods.
IL-5+p means IL-5 administered during Weaner period only.
A. Saline injection, 1 ml IM neck muscle.
B. 100 μg IL-5 injection, 1 ml IM neck muscle.
Weaner stage: 2 injections per week,
Grower and finisher stage 1 injection per week.
(§1) Pigs were weaned and weighted at the start of the experiment (D0, W0) and weekly until the end of the weaner period (W6), at the end of the grower (W13) and finisher (W19) stages and once during the grower (W9) and finisher (W16) stages. Blood and sera samples were collected at the start (before treatments) and end of the weaner, grower and finisher periods. Blood and sera were taken prior to treatment injection. Haematology (totals and differentials) was performed.
At the start of the trial, the mean weight and the variance of all groups was equalised to reduce confounding influence of starting weight. Thus, the positive effects on growth were due to treatment effects.

[2] = test system: eosinophils; assay: Example 11: IL-5 and IL-3 on eosinophil production; assay type: in vivo, pigs
Excerpt: The aim of this example was to determine if the effects of IL-3 and IL-5 act synergistically to increase eosinophil levels and antibody production.
As IL-3 stimulates the proliferation of pre-active B cells prior to the effects of IL-5, it was believed that administration of both IL-3 and IL-5 would have a greater impact on eosinophil production than the administration of either cytokine alone. An experiment was undertaken using pigs raised under clean PC2 conditions with raised floors. There were 5 treatments with 6 pigs per treatment. Pigs were 5-6 weeks of age. The animals were injected intramuscularly on days 0, 3, 7 and 10 of the experiment with either recombinant cytokines or saline. The treatments include IL-5 and IL-3 alone and given either together at the same time at different sites or to the same animal but with IL-3 being administered one week before IL-5. The treatments were as follows:
Group 3—100 μg IL-3+100 μg IL-5 (separate sites)
The pigs were bled 4 times per week for the first 2 weeks and once per week for the following 2 weeks and haematology measured using a CellDyn machine. Sera were collected also each week and tested for antibody levels.

[3] = test system: E. coli; assay: Example 5: production loss during outbreak of post weaning scours; assay type: in vivo, pigs; settings: vs respective saline controls
Excerpt: (§2) Unfortunately, a severe outbreak of post weaning scours affected all treatment groups. The most likely cause of the scours was E. coli. […] FIG. 25 compares the average weights of the saline controls, with and without antibiotics, from this experiment and the previous experiment. […] The infectious disease (scours) affected the un-medicated saline group at an earlier stage than the medicated group.
(§3) Weights were taken from the start to the end of the weaner period. […] This benefit was also reflected in the production loss as measured by deaths from infectious disease, or weight loss over any given week during the weaner period (FIG. 29).
(§4) All other deaths were a result of scours. Weight loss was defined as one or more weekly weight reductions of individual pigs. […] Antibiotic supplements also lessened production loss. Weight loss could have also been a result of stress, especially at the time of weaning when pigs are removed from sows, transported, mixed in different social groups and fed dry food. […] The higher average weights were presumably due to reduced severity of disease and associated weight loss. […] The pattern of higher average weight gains in IL-5 treated pigs was repeated with the reduced level and normal level of antibiotic supplementation (FIG. 31 and FIG. 32 respectively). […]

[4] = as above; assay type: in vivo, pigs; settings: normal antibiotics, 2 days into weaner period
Excerpt: as §2, §3, §4

[5] = test system: eosinophils; assay: Example 5: haematology, eosinophil levels; parameters: species or system pigs; settings: pig, in vivo
Experimental: as §1
Haematology and differentials were undertaken at various time points during the trial. There were no significant changes between groups for these parameters except for eosinophil levels (FIG. 41).

[6] = test system: eosinophils; assay: Example 3: mode of administration of IL-5 (protein or DNA) on eosinophils; assay type: in vivo, pigs; settings: six times over 2 weeks
Experimental: This trial compared the delivery of IL-5 as recombinant protein or by DNA using different routes of administration. Each treatment was administered six times over 2 weeks (Days 0, 1, 3, 6, 8, 10).
6 pigs/treatment group. Blood haematology measured.
(§5) The experiment was conducted using medicated feed Barastoc EziWean 150 then Bunge Grolean CREEP ad libitum in an experimental environment (PC2 containment facilities).
Blood total and differential counts were performed using a CellDyn 3700 haematology machine.

[7] = test system: eosinophils; assay: Example 1: recombinant IL-5 and IL-5 DNA on eosinophil numbers in the blood of pigs; assay type: in vivo; settings: recombinant IL-5 100 μg IM on 1 or 2 consecutive days, up to 12 days after treatment
Experimental: This trial compared the effects of recombinant porcine IL-5 protein and DNA delivered porcine IL-5 on eosinophil numbers in the blood of pigs.
6 pigs per treatment, approximately 7-8 weeks of age (weaners), mean weight of approx. 15 kg.
as §5
Recombinant IL-5 was expressed in E. coli and purified using a GST tag system. (See, for example, Smith, D. B and Johnson, K. S. (1988), Gene, 67:31-40). IL-5 was cleaved from the GST tag, purified and tested in bioassays to confirm activity.
IL-5 cDNA (including the signal sequence) was cloned into the pCI DNA vector. DNA was purified using the Qiagen Giga Prep kit (Qiagen Inc. USA).
Total white cells and eosinophils were counted from slides.
Pre-bleed for haematology and dose with all treatments (1, 2, 3, 4, 5 as shown above)
8 hrs later, bleed for haematology

[8] = 2nd trial, normal medication, weaner period
[9] = normal antibiotics, IL-5 during weaner, grower, finisher periods

B1: interleukin 5 (protein, UniProt Q9MYM5 22-134, looked up)
Interleukin-5: VENTMNRLVAETLTLLSIHRTLLIGDGNLMISTPVHTNHQLCIEEVFQGIDTLKNQTARGDAVEKLFQNLSLIKEYIDRQKKNCGGERWRVTQFLDYLQVFLGVINTEWTMES
notes: recombinant porcine IL-5 protein expressed in E. coli; + / − = with / without antibiotic medicated feed and water, +p = weaner period only
increase in average weights over medicated saline control [1, 8]: 7% | increase in weight gain over medicated saline control [1, 8]: 11% | total group weights, weaner period ([1]; no, reduced or normal antibiotics): beneficial effects on total weights, especially with reduced or no antibiotic supplements | average weight increases, weaner-only vs continuous IL-5 ([1]; normal antibiotics): no significant differences between groups given IL-5 during the weaner or continuously throughout the weaner, grower and finisher periods | change of final average weight vs saline control [1, 9]: ~−1.5% | decrease of final average weight vs saline control [1, 9]: 1.3 kg | average weights ([1]; normal antibiotics, W6 to W13): consistently higher average weights than the saline control (with normal antibiotics) from the end of the weaner period (W6) to the end of the grower period (W13) | average weight higher than IL-5+p ([1]; normal antibiotics, Week 13): 1.3 kg | average weight higher than saline control ([1]; normal antibiotics, Week 13): 4.7 kg | average weight lower than IL-5+p ([1]; normal antibiotics, Week 19): 2 kg | average weight lower than saline control ([1]; normal antibiotics, Week 19): 1.3 kg | average weight gains during the Weaner period ([1]; vs respective saline controls, with or without antibiotic supplements): consistently higher average weight gains during the Weaner period compared to the respective saline controls with or without antibiotic supplements in water or feed | average weight gains during the Weaner period ([1]; vs saline controls without antibiotic supplements): consistently higher average weight gains during the Weaner period | eosinophil percentage of WBC relative to the original value ([2]; after 4 injections): approximately 10 times | eosinophils as a percent of white blood cells ([2]; single cytokine 100 μg IM days 0, 3, 7, 10): significant increase in eosinophil levels; also recorded: dramatically increased circulating eosinophil cells | production loss (deaths from infectious disease or weight loss), weaner period [3]: less production loss compared to their respective saline controls | deaths [4]: H. parasuis deaths occurred | levels of eosinophils in blood (absolute numbers and differentials) [5]: significantly increased the levels of eosinophils in blood | circulating eosinophil numbers (percentage of WBC) ([6]; 100 μg rec.IL-5 IM hind leg, listed as Recombinant IL-5): elevated circulating eosinophil numbers | circulating eosinophil numbers (percentage of WBC) ([6]; 100 μg rec.IL-5 IM hind leg, listed as recombinant IL-5): increase in the duration and level of eosinophils in blood | circulating eosinophil numbers (percentage of WBC) ([6]; 100 μg rec.IL-5 intranasal spray): slight increases on eosinophil numbers compared to the DNA control but not statistically significant | percentage eosinophils of white blood cells (WBC) [7]: transient (several days) | percentage eosinophils of white blood cells (WBC) ([7]; listed as recombinant IL-5): sustained increase in eosinophil numbers in blood over several days; also recorded: two doses being more effective than one dose; also recorded: more effective than DNA in increasing eosinophil numbers
